The labels stand for the following.
T1: Human HARS (human, UniProt P12081 1-509, limits assumed)
T1 construct: also called human HRS; human histidyl-tRNA synthetase
T1 sequence: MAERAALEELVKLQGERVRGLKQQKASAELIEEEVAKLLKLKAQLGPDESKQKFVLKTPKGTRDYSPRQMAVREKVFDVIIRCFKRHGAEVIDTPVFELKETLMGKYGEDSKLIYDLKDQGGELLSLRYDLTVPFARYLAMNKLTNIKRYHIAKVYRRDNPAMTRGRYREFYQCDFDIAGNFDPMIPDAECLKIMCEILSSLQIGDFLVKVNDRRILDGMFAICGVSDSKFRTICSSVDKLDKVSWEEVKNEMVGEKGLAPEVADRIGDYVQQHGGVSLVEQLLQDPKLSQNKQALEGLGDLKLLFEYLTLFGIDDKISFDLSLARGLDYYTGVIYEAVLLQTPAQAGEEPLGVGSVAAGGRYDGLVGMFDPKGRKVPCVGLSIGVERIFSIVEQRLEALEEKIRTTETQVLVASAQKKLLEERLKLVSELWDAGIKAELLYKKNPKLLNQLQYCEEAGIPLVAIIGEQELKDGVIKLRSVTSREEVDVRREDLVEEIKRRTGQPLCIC

B1: KL31-600 (antibody, human IgG1, V domains shown)
VH: QVQLQQSGAELVRPGSSVRMSCKAVGYTFTDYCIGWIKQRPGHGLEWIGDICPGDAYTNDNEKFKDKATLTADTSSTTAYMQLSSLTSEDSAIYYCARGEEQVGLRNAMDYWGQGTSVTVSS
VL: DIVLTQSPASLAVSLGQRATISCQSQSVSTSTYNYMHWYQQKPGQPPKLLIKYASNLESGVPARFSGSGSGTDFTLNIHPVEEEDTATYYCQHSWEIPWTFGGGTKLEIK
B2: KL31-313 (antibody, IgG2a, V domains shown)
VH: QVQLQQSGAELVRPGSSVRMSCKAVGYTFTDYCIGWIKQRPGHGLEWIGDICPGDAYTNDNEKFKDKATLTADTSSTTAYMQLSSLTSEDSAIYYCARGEEQVGLRNAMDYWGQGTSVTVSS
VL: DIVLTQSPASLAVSLGQRATISCQSQSVSTSTYNYMHWYQQKPGQPPKLLIKYASNLESGVPARFSGSGSGTDFTLNIHPVEEEDTATYYCQHSWEIPWTFGGGTKLEIK
notes: Mouse; IgG2a kappa
B3: KL31-275 (antibody, IgG1, V domains shown)
VH: QVQLQQSGAELVRPGSSVRMSCKAVGYTFTDYCIGWIKQRPGHGLEWIGDICPGDAYTNDNEKFKDKATLTADTSSTTAYMQLSSLTSEDSAIYYCARGEEQVGLRNAMDYWGQGTSVTVSS
VL: DIVLTQSPASLAVSLGQRATISCQSQSVSTSTYNYMHWYQQKPGQPPKLLIKYASNLESGVPARFSGSGSGTDFTLNIHPVEEEDTATYYCQHSWEIPWTFGGGTKLEIK
notes: Mouse; IgG1 kappa
B4: AB04-160 (antibody, V domains shown)
VH: QVQLVESGGGLVKPGGSLRLSCAASGFTFSDYYMTWIRQAPGKGLEWVSYISGSFRYTNYADSVKGRFTISRDNAKNSLYLQMNSLRDEDTAVYFCARYVYQVVAIGDLWGQGTLVTVSS
VL: DIQMTQSPSSVSASVGDRVTITCRASQGISSWLAWYQQKPGRAPKLLIFAASSLQSGVPSRFSGSGSGTHFTLTISSLQPEDFATYYCQQAKSFPYTFGQGTKLEIK
notes: Human; IgG1m(zf) kappa
B5: AB04-121 (antibody, V domains shown)
VH: QVQLVESGGGLVKPGGSLRLSCAASGFTFSDYYMTWIRQAPGKGLEWVSYISGSNAYTDYADSVKGRFTISRDNAKNSLYLQMNSLRDEDTAVYFCARYVYQVVAIGDYWGQGTLVTVSS
VL: DIQMTQSPSSVSASVGDRVTITCRASQGISSWLAWYQQKPGRAPKLLIFAASSLQSGVPSRFSGSGSGTHFTLTISSLQPEDFATYYCQQAKSFPYTFGQGTKLEIK
notes: Human; IgG1m(zf) kappa
B6: KL31-261 (antibody, V domains shown)
VH: QVQLVQSGAEVKKPGASVKVSCKASGYTFTDYCIGWIRQAPGQGLEWMGDICPGDVYTNDNEKFKDRATMTADTSTSTAYMELSSLRSEDTAVYYCARGEEQLGLRNAMDYWGQGTLVTVSS
VL: DIVMTQSPDSLAVSLGERATINCQSQSVSTSTYNYMHWYQQKPGQPPKLLIKYASNLESGVPDRFSGSGSGTDFTLTISSLQAEDVATYYCQHSWEIPWTFGGGTKVEIK
notes: Humanized; IgG1m(zf) kappa
B7: KL31-131 (antibody, V domains shown)
VH: QVQLVQSGAEVKKPGASVKVSCKASGYTFTDYCIGWIRQAPGQGLEWMGDICPGDTYTNDNEKFKDRATMTADTSTSTAYMELSSLRSEDTAVYYCARGEEQLGLRNAMDYWGQGTLVTVSS
VL: EIVLTQSPATLSLSPGERATLSCQSQSVSTSTYNYMHWYQQKPGQAPRLLIKYASNLESGIPDRFSGSGSGTDFTLTISRLEPEDFATYYCQHSWEIPWTFGGGTKVEIK
notes: Humanized; IgG1m(zf) kappa
B8: KL31-523 (antibody, V domains shown)
VH: QVQLVQSGAEVKKPGASVKVSCKASGYTFTDYCIGWIRQAPGQGLEWMGDICPGDAYTNDNEKFKDRATMTADTSTSTAYMELSSLRSEDTAVYYCARGEEQVGLRNAMDYWGQGTSVTVSS
VL: DIVMTQSPDSLAVSLGERATINCQSQSVSTSTYNYMHWYQQKPGQPPKLLIKYASNLESGVPDRFSGSGSGTDFTLTISSLQAEDVATYYCQHSWEIPWTFGGGTKLEIK
notes: Humanized; IgG1m(zf) kappa

The target in the assay is T1, Human HARS. As to the kind of experiment: SPR (ProteOn); HRS protein immobilized, antibody as analyte.
Usually Kd stands for the constant that tells how readily two partners part at equilibrium. A low value points to higher affinity. The molecule B1 returned a Kd of 12.2 nM.

As to B2, the Kd turned out to be 277 nM. Against the preceding molecule, the Kd is about 23-fold higher. B3 gave a Kd of 6.79 nM. In the case of B4 it was 0.06 nM; in that of B5, 0.9 nM; in that of B6, 0.67 nM.

B7 showed a Kd of 0.25 nM. In turn, B8 had a Kd of 32.5 nM. Against the preceding molecule, the Kd is about 130-fold higher.

Values taken from US20180282402A1 (ATYR PHARMA, published 2018).
